Measurements: patent US20240043504A1 (published 2024)
Read-outs that look alike come from different tables or passages of the source.

T1: MERS-CoV (NCoV/Novel coronavirus) Spike Protein (ECD, aa 1-1297, His Tag) (Sino 40069-[change]) (MERS-CoV, UniProt K9N5Q8 18-1297)
T1 sequence: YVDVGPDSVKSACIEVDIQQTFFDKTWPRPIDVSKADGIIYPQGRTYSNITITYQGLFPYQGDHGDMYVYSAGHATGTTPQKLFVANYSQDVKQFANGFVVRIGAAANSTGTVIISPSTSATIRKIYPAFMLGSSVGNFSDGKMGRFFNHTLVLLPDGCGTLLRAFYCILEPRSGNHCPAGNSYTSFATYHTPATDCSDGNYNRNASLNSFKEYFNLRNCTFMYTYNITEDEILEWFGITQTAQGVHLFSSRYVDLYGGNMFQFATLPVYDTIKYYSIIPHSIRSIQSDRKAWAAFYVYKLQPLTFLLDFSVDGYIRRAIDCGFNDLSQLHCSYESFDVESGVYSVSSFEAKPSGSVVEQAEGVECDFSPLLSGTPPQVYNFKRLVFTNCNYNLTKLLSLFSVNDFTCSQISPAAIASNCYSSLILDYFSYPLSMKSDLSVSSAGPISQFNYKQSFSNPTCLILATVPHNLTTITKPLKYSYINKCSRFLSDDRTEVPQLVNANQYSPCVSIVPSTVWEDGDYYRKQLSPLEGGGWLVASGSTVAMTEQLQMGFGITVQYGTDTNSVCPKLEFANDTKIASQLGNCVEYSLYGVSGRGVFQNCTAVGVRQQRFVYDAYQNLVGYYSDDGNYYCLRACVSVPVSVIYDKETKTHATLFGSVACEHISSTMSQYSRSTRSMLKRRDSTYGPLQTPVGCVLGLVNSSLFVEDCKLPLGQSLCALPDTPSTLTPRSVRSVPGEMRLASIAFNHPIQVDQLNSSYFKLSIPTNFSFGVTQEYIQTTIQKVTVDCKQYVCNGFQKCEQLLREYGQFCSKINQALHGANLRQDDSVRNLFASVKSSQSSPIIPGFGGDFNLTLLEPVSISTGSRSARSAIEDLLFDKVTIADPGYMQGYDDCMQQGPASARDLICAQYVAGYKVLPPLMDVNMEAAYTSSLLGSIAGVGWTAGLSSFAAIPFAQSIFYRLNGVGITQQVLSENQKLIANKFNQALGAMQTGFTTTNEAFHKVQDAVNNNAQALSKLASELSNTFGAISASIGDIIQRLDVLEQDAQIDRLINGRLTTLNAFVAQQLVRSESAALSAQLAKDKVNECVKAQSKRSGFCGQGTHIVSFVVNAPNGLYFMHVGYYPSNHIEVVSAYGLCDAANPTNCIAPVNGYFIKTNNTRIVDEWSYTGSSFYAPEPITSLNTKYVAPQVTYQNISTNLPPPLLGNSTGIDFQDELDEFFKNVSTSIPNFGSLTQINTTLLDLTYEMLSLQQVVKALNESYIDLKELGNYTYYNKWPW

T2: MERS-CoV (NCoV/Novel coronavirus) Spike Protein fragment (RBD, aa 367-606, His Tag) (Sino 40071-V08B1) (MERS-CoV, UniProt K9N5Q8 367-606)
T2 sequence: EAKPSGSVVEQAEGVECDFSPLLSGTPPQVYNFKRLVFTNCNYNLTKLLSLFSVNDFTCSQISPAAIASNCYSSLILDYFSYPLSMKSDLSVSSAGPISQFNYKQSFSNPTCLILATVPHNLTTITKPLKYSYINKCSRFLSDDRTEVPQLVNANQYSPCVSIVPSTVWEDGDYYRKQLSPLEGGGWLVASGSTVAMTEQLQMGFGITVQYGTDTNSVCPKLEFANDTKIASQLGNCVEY

T3: MERS-CoV (NCoV/Novel coronavirus) Spike Protein S2 (aa 726-1296, His Tag) (Sino 40070-[change]) (MERS-CoV, UniProt K9N5Q8 726-1296)
T3 sequence: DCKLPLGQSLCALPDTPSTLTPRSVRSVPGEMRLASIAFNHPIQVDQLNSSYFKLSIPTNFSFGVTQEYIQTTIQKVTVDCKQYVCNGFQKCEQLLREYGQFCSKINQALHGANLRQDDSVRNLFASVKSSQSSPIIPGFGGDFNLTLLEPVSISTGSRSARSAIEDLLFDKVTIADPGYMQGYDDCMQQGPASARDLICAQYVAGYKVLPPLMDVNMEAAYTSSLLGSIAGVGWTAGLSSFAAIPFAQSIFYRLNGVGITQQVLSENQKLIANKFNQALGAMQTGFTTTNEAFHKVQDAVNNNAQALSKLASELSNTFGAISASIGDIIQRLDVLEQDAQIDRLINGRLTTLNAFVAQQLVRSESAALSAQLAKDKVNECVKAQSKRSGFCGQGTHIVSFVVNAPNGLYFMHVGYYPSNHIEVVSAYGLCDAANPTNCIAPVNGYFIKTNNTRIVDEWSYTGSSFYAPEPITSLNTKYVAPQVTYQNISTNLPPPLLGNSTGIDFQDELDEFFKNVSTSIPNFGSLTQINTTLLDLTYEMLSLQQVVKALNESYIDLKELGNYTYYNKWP


How the values were obtained:
Assay in all cases: Luminex bead binding, supernatant
[1] = molecular target: T4, Human SARS Coronavirus Spike S1 Subunit Protein (His Tag) (Sino 40150-V08B1) (Human SARS Coronavirus, UniProt P59594 14-667)
[2] = molecular target: T1, MERS-CoV (NCoV/Novel coronavirus) Spike …
[3] = molecular target: T2, MERS-CoV (NCoV/Novel coronavirus) Spike …
[4] = molecular target: T3, MERS-CoV (NCoV/Novel coronavirus) Spike …
[5] = molecular target: T2, MERS-CoV (NCoV/Novel coronavirus) Spike …; remark: listed apart in the source
[6] = molecular target: T4, Human SARS Coronavirus Spike S1 Subunit …; remark: listed apart in the source
[7] = molecular target: SARS-CoV-2 Spike Protein (RBD)(R319-F541).mFc (mAb10621-L1) (SARS-CoV-2)
[8] = molecular target: SARS-CoV-2 Spike Protein (RBD)(R319-F541).hFc (mAb10622-L1) (SARS-CoV-2)
[9] = molecular target: Bt-SARS-CoV-2 Spike Protein (RBD)(R319-F541).mFc (mAb10621-L2) (SARS-CoV-2)

Row | Binder | Binding signal (MFI) [1] | Binding signal (MFI) [2] | Binding signal (MFI) [3] | Binding signal (MFI) [4] | Binding signal (MFI) [5] | Binding signal (MFI) [6] | Binding signal (MFI) [7] | Binding signal (MFI) [8] | Binding signal (MFI) [9]
1 | mAb10964 (antibody, V domains shown) VH: QVQLQESGPGLVKPSETLSLTCTVSGGSINNYYWIWIRQPPGKGLEWIGYIYHSGSTNYNPSLKSRVTISVDTSKNQFSLKVSSVTAADTAVYYCANMVRGVYEDDYWGQGTLVTVSS VL: DIQMTQSPSSLSASVGDRVTITCRASQSISNYLNWYQQKPGKAPKLLIFAASSLRSGVPSRFSGSGSGTDFTLTISSLHPEDFATYYCQQNYNTPLTFGPGTKVDIKR | 5190 MFI | 15 MFI | 20 MFI |  |  |  |  |  | 
2 | mAb10971 (antibody, V domains shown) VH: EVQLVESGGGLIQPGGSLRLSCAASGVTVSSNYMSWVRQAPGKGLEWVSVIYSGGSTFYSDSVKGRFSISRDNSKNTLYLQMNSLRAEDTAVYYCARDLYYYGMDVWGQGTTVTVSS VL: DIQLTQSPSFLSASVGDRVTITCRASQGISTYLAWYQQKPGKAPKLLIYAASTLQSGVPSRFSGSGSGTEFTLTISSLQPEDFATYYCQQLDSYPGLTFGGGTKVEIKR | 20 MFI | 15 MFI | 20 MFI | 13 MFI |  |  |  |  | 
3 | mAb11000 (antibody, V domains shown) VH: EVQLVESGGGLVQPGGSLRLSCAASGFTVSSNYMNWVRQAPGKGLEWVSVIYSGGSTFYADSVRGRFTISRHNSKNTLYLQMNSLRAEDTAVYYCARDGSAYGMDVWGQGTTVTVSS VL: not shown |  |  |  |  | 27 MFI |  |  |  | 
4 | mAb10998 (antibody, V domains shown) VH: EVQLVESGGGLVHPGGSLRLSCAASGLTVSSNYMSWVRQAPGKGLEWVSVIYSGGSTYYADSVKGRFTISRHNSKNTLFLQMNSLRAEDTAVYYCARDRPITGTTLDVWGQGTTVTVSS VL: DIQMTQSPSSLFASVGDRVTITCRASQSISSYLNWYQQKPGKAPKLLIYAASSLQSGVPSRFSGSGSGTDFTLTISSLQPEDFAFYYCQQTYSTPPITFGQGTRLEIK |  |  |  |  |  | 16 MFI | 2230 MFI | 1740 MFI | 2230 MFI
5 | mAb10987 (antibody, V domains shown) VH: QVQLVESGGGVVQPGRSLRLSCAASGFTFSNYAMYWVRQAPGKGLEWVAVISYDGSNKYYADSVKGRFTISRDNSKNTLYLQMNSLRTEDTAVYYCASGSDYGDYLLVYWGQGTLVTVSS VL: QSALTQPASVSGSPGQSITISCTGTSSDVGGYNYVSWYQQHPGKAPKLMIYDVSKRPSGVSNRFSGSKSGNTASLTISGLQSEDEADYYCNSLTSISTWVFGGGTKLTVLG |  | 15 MFI |  | 23 MFI |  |  |  |  | 
6 | mAb11002 (antibody, V domains shown) VH: EVQLVESGGGLVQPGGSLRLSCAASGFTVSSNYMSWVRQAPGKGLEWVSVIYSGGSTFYADSVKGRFTISRHNSKNTLYLQMNSLRAEDTAVYYCAREGYGMDVWGQGTTVTVSS VL: not shown |  |  |  |  |  | 31 MFI | 9530 MFI | 9380 MFI | 2200 MFI
7 | mAb10970 (antibody, V domains shown) VH: EVQLVESGGGLVQPGGSLRLSCAASGFTVSSNYMSWVRQAPGKGLEWVSVIYSGGSTYYADSVKGRFTISRDNSKNTLYLQMNRLRADDTAVYYCVRDPVGRYYYGMDVWGQGTTVTVSS VL: not shown |  | 14 MFI | 23 MFI | 16 MFI |  |  |  |  | 
8 | mAb10955 (antibody, V domains shown) VH: EVQLVESGGGLVQPGGSLRVSCAASGFTVSRNYMSWVRQAPGKGLEWVSVIYSGGSTFYADSVKGRFTISRDNSKNTLYLQMNSLRAEDTAIYYCARYIPRFDPWGQGTLVTVSS VL: DIQMTQSPSSLSASVGDRVTITCQASQDISNYLNWFQQKPGRAPKLLIYDASNLETGVPSRFSGSGSGTDFTFTISSLQPEDIATYYCQQYDNLPITFGQGTRLEIKR | 14 MFI | 15 MFI | 20 MFI | 18 MFI |  |  |  |  | 
9 | mAb10969 (antibody, V domains shown) VH: QVQLVESGGGVVQPGRSLRLSCAASGFTFSSYAMHWVRQAPGKGLEWVAVISYDGSNKYYADSVKGRFTISRDNSKNTLYLQMNSLRAEDTAVYYCARDGRTITMVRGVIDDAFDIWGQGTMVTVSS VL: not shown | 20 MFI | 16 MFI | 26 MFI | 20 MFI |  |  |  |  | 
10 | mAb11010 (antibody, V domains shown) VH: QVQLVESGGGVVQPGRSLRLSCAASGFTFSSYGMHWVRQAPGKGLEWVAVISYDGSYKYYADSVKGRFTISRDNSKNTLYLQMNSLRAEDTAVYYCAIDGGTVTTIFDYWGQGTLVTVSS VL: not shown |  |  |  |  |  | 7420 MFI | 14400 MFI | 8880 MFI | 9350 MFI
